Where no end group is shown, it is not given here.
B1: Phage-3170 (peptide)
peptide: EVKFCKPAWMCTGF
modifications: cysteine pairing not given here; also: fused to phage pIII, fusion site not given here
B2: Phage-3169 (peptide)
peptide: VEKLCKPEWMCMGF
modifications: cysteine pairing not given here; also: fused to phage pIII, fusion site not given here
B3: Phage-3158 (peptide)
peptide: IVPYCMPQWMCSGF
modifications: cysteine pairing not given here; also: fused to phage pIII, orientation and linker not given here
B4: Phage-3167 (peptide)
peptide: TYPKCIPPWMCTGF
modifications: cysteine pairing not given here; also: fused to phage pIII, fusion site not given here
B5: Phage-3162 (peptide)
peptide: ETALCRPLWMCDWL
modifications: cysteine pairing not given here; also: fused to phage pIII, fusion site not given here
B6: Phage-3166 (peptide)
peptide: LVRVCTPMWMCQGF
modifications: cysteine pairing not given here; also: fused to phage pIII, fusion site not given here
B7: Phage-3163 (peptide)
peptide: DIHLCTPNWMCSGF
modifications: cysteine pairing not given here; also: fused to phage pIII, fusion site not given here
B8: Phage-3157 (peptide)
peptide: QMPMCRPAWMCMGF
modifications: cysteine pairing not given here; also: fused to phage pIII, orientation and linker not given here
B9: Phage-3168 (peptide)
peptide: ADWLCRPAWMCEGL
modifications: cysteine pairing not given here; also: fused to phage pIII, fusion site not given here
B10: Phage-3164 (peptide)
peptide: MDKICSPMWMCLGF
modifications: cysteine pairing not given here; also: fused to phage pIII, fusion site not given here
B11: Phage-3165 (peptide)
peptide: NVHYCVPAWMCNGF
modifications: cysteine pairing not given here; also: fused to phage pIII, fusion site not given here
B12: Phage-3161 (peptide)
peptide: NHVQCVPNWMCSGF
modifications: cysteine pairing not given here; also: fused to phage pIII, fusion site not given here
B13: Phage-3160 (peptide)
peptide: LALRCEPSWMCLGF
modifications: cysteine pairing not given here; also: fused to phage pIII, orientation and linker not given here
B14: Phage-3159 (peptide)
peptide: WMAMCKPVWMCEGF
modifications: cysteine pairing not given here; also: fused to phage pIII, orientation and linker not given here
B15: Phage-3171 (peptide)
peptide: GEVFCIPAWMCAGF
modifications: cysteine pairing not given here; also: fused to phage pIII, fusion site not given here
B16: Phage-3151 (peptide)
peptide: FPRLCEPLWMCKGF
modifications: cysteine pairing not given here; also: fused to phage pIII, orientation and linker not given here
notes: Clonal phage of the Peptide-180 library, tested as crude supernatant; not shown: fused to pIII of the bacteriophage
B17: Phage-3154 (peptide)
peptide: PWIVCKPAWMCTGF
modifications: cysteine pairing not given here; also: fused to phage pIII, orientation and linker not given here
notes: as for B16
B18: Phage-3147 (peptide)
peptide: FEMFCIPAWMCSGL
modifications: cysteine pairing not given here; also: fused to phage pIII, orientation and linker not given here
notes: as for B16
B19: Phage-3155 (peptide)
peptide: VSSMCKPAWMCSGF
modifications: cysteine pairing not given here; also: fused to phage pIII, orientation and linker not given here
notes: as for B16
B20: Phage-3146 (peptide)
peptide: GPIMCQPRWMCEGF
modifications: cysteine pairing not given here; also: fused to phage pIII, orientation and linker not given here
notes: as for B16
B21: Phage-3149 (peptide)
peptide: LLPACKPTWMCTGL
modifications: cysteine pairing not given here; also: fused to phage pIII, orientation and linker not given here
notes: as for B16
B22: Phage-3153 (peptide)
peptide: DMSLCKPPWMCFGF
modifications: cysteine pairing not given here; also: fused to phage pIII, orientation and linker not given here
notes: as for B16
B23: Phage-3148 (peptide)
peptide: AEYMCIPSWMCHGM
modifications: cysteine pairing not given here; also: fused to phage pIII, orientation and linker not given here
notes: as for B16
B24: Phage-3145 (peptide)
peptide: IERSCTPSWMCHGF
modifications: cysteine pairing not given here; also: fused to phage pIII, orientation and linker not given here
notes: as for B16
B25: Phage-3156 (peptide)
peptide: IQVMCRPAWMCSGF
modifications: cysteine pairing not given here; also: fused to phage pIII, orientation and linker not given here
notes: as for B16
B26: Phage-3150 (peptide)
peptide: DAPLCKPQWMCSGF
modifications: cysteine pairing not given here; also: fused to phage pIII, orientation and linker not given here
notes: as for B16
B27: Phage-3152 (peptide)
peptide: WDQWCVPKWMCQGF
modifications: cysteine pairing not given here; also: fused to phage pIII, orientation and linker not given here
notes: as for B16

biological target: T1, PSMA Fab; test: clonal phage ELISA on captured PSMA Fab pre-incubated with PSMA antigen as competitor;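 note: crude clonal phage supernatants added to wells without washing away the PSMA competitor, bound phage detected by HRP-conjugated anti-M13 antibody, reference wells received blocking buffer only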
T1 construct: also called Anti-PSMA Fab; 006 PSMA Fab
Protocol: (§1) Clonal phage were harvested as crude supernatants and screened via standard ELISAs. […] Prior to the addition of clonal phage. wells were incubated with blocking buffer and PSMA antigen or blocking buffer alone. Without washing or aspirating, clonal phage supernatants were then added to the wells and incubated for a short time. Wells were then washed followed by detection of bound phage using a horse radish conjugated anti-M13 antibody.

Row | Binder | Phage binding ELISA signal, Anti-PSMA Fab in presence of PSMA
1 | B1 | 0.0863
2 | B2 | 0.0909
3 | B3 | 0.107
4 | B4 | 0.115
5 | B5 | 0.0692
6 | B6 | 0.058
7 | B7 | 0.0738
8 | B8 | 0.105
9 | B9 | 0.0589
10 | B10 | 0.0702
11 | B11 | 0.163
12 | B12 | 0.138
13 | B13 | 0.112
14 | B14 | 0.163

biological target: T1, PSMA Fab; test: clonal phage ELISA on biotinylated PSMA Fab captured on neutravidin, anti-M13 HRP detection;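 note: crude clonal phage supernatants added to wells pretreated with PSMA antigen in blocking buffer or with blocking buffer only, then briefly incubated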
Protocol: as §1

Row | Binder | Phage binding ELISA signal, Anti-PSMA Fab
15 | B1 | 2.02
16 | B2 | 2.02
17 | B3 | 2.04
18 | B4 | 2.03
19 | B5 | 2.03
20 | B6 | 2.03
21 | B7 | 2.03
22 | B8 | 2.04
23 | B9 | 2.02
24 | B10 | 2.03
25 | B11 | 2.03
26 | B12 | 2.03
27 | B13 | 2.03
28 | B14 | 2.04

biological target: T2, PSMA Fab (006 PSMA Fab); test: phage binding ELISA; PSMA Fab wells pre-incubated with PSMA antigen as competitor, anti-M13 HRP detection
T2 construct: also called Anti-PSMA Fab
Protocol: as §1

Row | Binder | Phage binding ELISA signal, Anti-PSMA Fab with PSMA antigen
29 | B15 | 0.107
30 | MDRMCVPEWMCYVF [Phage-3173] | 0.0741
31 | ANLLCIPNWMCSGF [Phage-3172] | 0.0969

biological target: T3, PSMA Fab; test: clonal phage ELISA on captured PSMA Fab pre-incubated with PSMA antigen as competitor, anti-M13 HRP detection;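 note: crude clonal phage supernatants tested by ELISA, wells first treated with blocking buffer plus PSMA antigen, bound phage read out via HRP-linked anti-M13 antibody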
T3 construct: also called Anti-PSMA Fab; 006 PSMA Fab
Protocol: as §1

Row | Binder | phage binding ELISA signal (Anti-PSMA Fab, PSMA antigen present)
32 | B16 | 0.0987
33 | B17 | 0.118
34 | B18 | 0.0821
35 | B19 | 0.0629
36 | B20 | 0.0807
37 | B21 | 0.135
38 | B22 | 0.0792
39 | B23 | 0.0861
40 | B24 | 0.072
41 | B25 | 0.0959
42 | B26 | 0.0854
43 | B27 | 0.197

biological target: T2, PSMA Fab (006 PSMA Fab); test: phage binding ELISA; biotinylated PSMA Fab on neutravidin plate, clonal phage supernatant, anti-M13 HRP detection;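 note: wells were preincubated with blocking buffer either containing PSMA antigen or without it before crude phage supernatant was added, briefly incubated, then washed prior to detection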
Protocol: as §1

Row | Binder | Phage binding ELISA signal, Anti-PSMA Fab
44 | B15 | 2.02
45 | MDRMCVPEWMCYVF [Phage-3173] | 2.02
46 | ANLLCIPNWMCSGF [Phage-3172] | 2.02

biological target: T3, PSMA Fab; test: clonal phage ELISA on biotinylated PSMA Fab captured on neutravidin plates, anti-M13 HRP detection, blocking buffer alone
Protocol: as §1

Row | Binder | Phage binding ELISA signal, Anti-PSMA Fab
47 | B16 | 2.04
48 | B17 | 2.04
49 | B18 | 2.05
50 | B19 | 2.04
51 | B20 | 2.05
52 | B21 | 2.04
53 | B22 | 2.04
54 | B23 | 2.05
55 | B24 | 2.05
56 | B25 | 2.04
57 | B26 | 2.04
58 | B27 | 2.04

— patent US20260242478A1 (published 2026)
